# T1: human TIGIT on CHO cells (human, UniProt Q495A1)
# T1 chain: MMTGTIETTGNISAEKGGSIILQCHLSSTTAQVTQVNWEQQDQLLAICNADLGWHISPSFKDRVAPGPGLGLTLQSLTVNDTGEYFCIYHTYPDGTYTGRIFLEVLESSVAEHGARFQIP
# T2: human TIGIT-Fc (human, UniProt Q495A1)
# T2 chain: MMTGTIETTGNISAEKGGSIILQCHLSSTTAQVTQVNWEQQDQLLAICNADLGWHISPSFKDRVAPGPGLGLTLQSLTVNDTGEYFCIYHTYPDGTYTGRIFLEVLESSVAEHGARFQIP
# How the values were obtained:
# human TIGIT on CHO cells [1] = biological target: T1, human TIGIT on CHO cells; experiment: FACS
# human TIGIT on CHO cells [2] = biological target: T1, human TIGIT on CHO cells; experiment: competition, CD155 blocking FACS
# human TIGIT-Fc = biological target: T2, human TIGIT-Fc; experiment: BLI
EC50 (human TIGIT on CHO cells [1]),IC50 (human TIGIT on CHO cells [2]),Kd (human TIGIT-Fc),Binder
0.326 nM,0.281 nM,–,"ADI-30302 (antibody, V domains shown) VH: QLQLQESGPGLVKPSETLSLTCTVSGGSIGSSQYYWGWIRQPPGKGLEWIGSIYRSGGTYYNPSLKSRVTISVDTSKNQFSLKLSSVTAADTAVYYCARDGLYHTPEYFQHWGQGTLVTVSS VL: EIVLTQSPATLSLSPGERATLSCRASQSVSSYLAWYQQKPGQAPRLLIYDASNRATGIPARFSGSGSGTDFTLTISSLEPEDFAVYYCQQRFAFPYTFGGGTKVEIK"
–,–,0.329 nM,"ADI-30302 Fab (antibody, V domains shown) VH: QLQLQESGPGLVKPSETLSLTCTVSGGSIGSSQYYWGWIRQPPGKGLEWIGSIYRSGGTYYNPSLKSRVTISVDTSKNQFSLKLSSVTAADTAVYYCARDGLYHTPEYFQHWGQGTLVTVSS VL: EIVLTQSPATLSLSPGERATLSCRASQSVSSYLAWYQQKPGQAPRLLIYDASNRATGIPARFSGSGSGTDFTLTISSLEPEDFAVYYCQQRFAFPYTFGGGTKVEIK"
–,–,1.66 nM,"ADI-30267 Fab (antibody, V domains shown) VH: QVQLVQSGAEVKKPGASVKVSCKASGYTFRSYYMSWVRQAPGQGLEWMGIIDPSGGRTSFAQKFQGRVTMTRDTSTSTVYMELSSLRSEDTAVYYCARARYPESWPYGMDVWGQGTTVTVSS VL: DIQMTQSPSSLSASVGDRVTITCRASQSINSYLNWYQQKPGKAPKLLIYAASSLQSGVPSRFSGSGSGTDFTLTISSLQPEDFATYYCQQSLLTPFTFGGGTKVEIK"
0.371 nM,0.278 nM,–,"ADI-30296 (antibody, V domains shown) VH: EVQLVESGGGLVQPGGSLRLSCAASGFTIGGYSMNWVRQAPGKGLEWVSYISSSSTIHYADSVKGRFTISRDNAKNSLYLQMNSLRAEDTAVYYCARHRIGRSPSRAFDIWGQGTMVTVSS VL: not shown"
–,–,2.43 nM,"ADI-30296 Fab (antibody, V domains shown) VH: EVQLVESGGGLVQPGGSLRLSCAASGFTIGGYSMNWVRQAPGKGLEWVSYISSSSTIHYADSVKGRFTISRDNAKNSLYLQMNSLRAEDTAVYYCARHRIGRSPSRAFDIWGQGTMVTVSS VL: not shown"
0.757 nM,0.531 nM,–,"ADI-30311 (antibody, V domains shown) VH: QLQLQESGPGLVKPSETLSLTCTVSGGSIASSVYYWGWIRQPPGKGLEWIGSIYYSGSTWYNPSLKSRVTISVDTSKNQFSLKLSSVTAADTAVYYCAREAGRTGTGLLFDYWGQGTLVTVSS VL: DIQMTQSPSTLSASVGDRVTITCRASQSISSWLAWYQQKPGKAPKLLIYKASSLESGVPSRFSGSGSGTEFTLTISSLQPDDFATYYCQQYGILPRTFGGGTKVEIK"
–,–,0.807 nM,"ADI-30311 Fab (antibody, V domains shown) VH: QLQLQESGPGLVKPSETLSLTCTVSGGSIASSVYYWGWIRQPPGKGLEWIGSIYYSGSTWYNPSLKSRVTISVDTSKNQFSLKLSSVTAADTAVYYCAREAGRTGTGLLFDYWGQGTLVTVSS VL: DIQMTQSPSTLSASVGDRVTITCRASQSISSWLAWYQQKPGKAPKLLIYKASSLESGVPSRFSGSGSGTEFTLTISSLQPDDFATYYCQQYGILPRTFGGGTKVEIK"
–,–,0.547 nM,"ADI-30288 Fab (antibody, V domains shown) VH: EVQLLESGGGLVQPGGSLRLSCAASGFTFGPYGMSWVRQAPGKGLEWVSAISGSGASTWHADSVKGRFTISRDNSKNTLYLQMNSLRAEDTAVYYCAKDPGTDSTGYYYIWRYWGQGTLVTVSS VL: EIVMTQSPATLSVSPGERATLSCRASQSVSSNLAWYQQKPGQAPRLLIYSASTRATGIPARFSGSGSGTEFTLTISSLQSEDFAVYYCQQYVPHPPFTFGGGTKVEIK"
–,–,0.553 nM,"ADI-30283 Fab (antibody, V domains shown) VH: EVQLLESGGGLVQPGGSLRLSCAASGFTFSPYGMSWVRQAPGKGLEWVSSISGSGGRTYYADSVKGRFTISRDNSKNTLYLQMNSLRAEDTAVYYCAKDPGTDSSGYYYIWRYWGQGTLVTVSS VL: EIVMTQSPATLSVSPGERATLSCRASQSVSSNLAWYQQKPGQAPRLLIYSASTRATGIPARFSGSGSGTEFTLTISSLQSEDFAVYYCQQYVPHPPFTFGGGTKVEIK"

# The next lines start with the binder.
Binder,EC50 (human TIGIT on CHO cells [1]),IC50 (human TIGIT on CHO cells [2]),Kd (human TIGIT-Fc)
"ADI-27278 (antibody, V domains shown) VH: EVQLVESGGGLVQPGGSLRLSCAASGFTFSSYSMNWVRQAPGKGLEWVSYISGSSSTIYYADSVKGRFTISRDNAKNSLYLQMNSLRAEDTAVYYCARHRIADSPSRAFDIWGQGTMVTVSS VL: not shown",0.968 nM,0.586 nM,–
"ADI-27243 (antibody, V domains shown) VH: QLQLQESGPGLVKPSETLSLTCTVSGGSISSSRYYWGWIRQPPGKGLEWIGSIYYSGSTYYNPSLKSRVTISVDTSKNQFSLKLSSVTAADTAVYYCARDGLYHTPEYFQHWGQGTLVTVSS VL: EIVLTQSPATLSLSPGERATLSCRASQSVSSYLAWYQQKPGQAPRLLIYDASNRATGIPARFSGSGSGTDFTLTISSLEPEDFAVYYCQQRFAFPYTFGGGTKVEIK",0.587 nM,0.819 nM,–
"ADI-30267 (antibody, V domains shown) VH: QVQLVQSGAEVKKPGASVKVSCKASGYTFRSYYMSWVRQAPGQGLEWMGIIDPSGGRTSFAQKFQGRVTMTRDTSTSTVYMELSSLRSEDTAVYYCARARYPESWPYGMDVWGQGTTVTVSS VL: DIQMTQSPSSLSASVGDRVTITCRASQSINSYLNWYQQKPGKAPKLLIYAASSLQSGVPSRFSGSGSGTDFTLTISSLQPEDFATYYCQQSLLTPFTFGGGTKVEIK",0.74 nM,0.278 nM,–
"ADI-27238 Fab (antibody, V domains shown) VH: QVQLVQSGAEVKKPGASVKVSCKASGYTFTSYYMSWVRQAPGQGLEWMGIINPSGGSTSYAQKFQGRVTMTRDTSTSTVYMELSSLRSEDTAVYYCARARYPSSWPYGMDVWGQGTTVTVSS VL: DIQMTQSPSSLSASVGDRVTITCRASQSINSYLNWYQQKPGKAPKLLIYAASSLQSGVPSRFSGSGSGTDFTLTISSLQPEDFATYYCQQSLLTPFTFGGGTKVEIK",–,–,13.8 nM
"ADI-30263 Fab (antibody, V domains shown) VH: QVQLVQSGAEVKKPGASVKVSCKASGYTFLSYYMNWVRQAPGQGLEWMGIIDPSGGRTSYAQKFQGRVTMTRDTSTSTVYMELSSLRSEDTAVYYCARARYPSSWPYGTDVWGQGTTVTVSS VL: DIQMTQSPSSLSASVGDRVTITCRASQSINSYLNWYQQKPGKAPKLLIYAASSLQSGVPSRFSGSGSGTDFTLTISSLQPEDFATYYCQQSLLTPFTFGGGTKVEIK",–,–,0.795 nM
"ADI-27297 Fab (antibody, V domains shown) VH: QVQLVQSGAEVKKPGASVKVSCKASGYTFTSYYMHWVRQAPGQGLEWMGIINPSGGSTSYAQKFQGRVTMTRDTSTSTVYMELSSLRSEDTAVYYCARDHDIAAAGRLADYWGQGTLVTVSS VL: DIQMTQSPSSVSASVGDRVTITCRASQGISSWLAWYQQKPGKAPKLLISAASSLQSGVPSRFSGSGSGTDFTLTISSLQPEDFATYYCQQAVILPITFGGGTKVEIK",–,–,32.1 nM
"ADI-27301 (antibody, V domains shown) VH: QLQLQESGPGLVKPSETLSLTCTVSGGSISSSSYYWGWIRQPPGKGLEWIGSIYYSGSTYYNPSLKSRVTISVDTSKNQFSLKLSSVTAADTAVYYCAREAGRGTTGLLFDYWGQGTLVTVSS VL: DIQMTQSPSTLSASVGDRVTITCRASQSISSWLAWYQQKPGKAPKLLIYKASSLESGVPSRFSGSGSGTEFTLTISSLQPDDFATYYCQQYGILPRTFGGGTKVEIK",0.899 nM,0.641 nM,–
"ADI-27291 (antibody, V domains shown) VH: not shown VL: EIVMTQSPATLSVSPGERATLSCRASQSVSSNLAWYQQKPGQAPRLLIYSASTRATGIPARFSGSGSGTEFTLTISSLQSEDFAVYYCQQYVPHPPFTFGGGTKVEIK",0.852 nM,1.61 nM,–
